Laboratory results published in paper PMC7104408 (Proceedings of the National Academy of Sciences of the …, 2019).
Positions count from the first letter of the chain named. Read-outs that look alike come from different tables or passages of the source.

B1: Oligo 5 (ATATTCGA) (dsDNA)
DNA 1: ATGATGTCTTCTCGAATATTCGATAAAAATGGTGTTG
DNA 2: CAACACCATTTTTATCGAATATTCGAGAAGACATCAT
B2: crystal 10-mer AGATACGC (dsDNA)
DNA 1: TAGATACGCA
DNA 2: ATGCGTATCT
B3: crystal 10-mer ATATTCGA (dsDNA)
DNA 1: TATATTCGAA
DNA 2: ATTCGAATAT
B4: EARLY FLOWERING 4 (natural protein)
chain: MKRNGETKRRRNVAEEAEQGEDPAMWENLDRNFRQVQSVLDRNRSLIQQVNDNHQSRMADNMSKNVALIQELNGNISKVVNMYSDLNTSFSSGFHGGKNGHDGGGAAGTRA
B5: Oligo 1 (PRR9 36 bp) (dsDNA)
DNA 1: ATGATGTCTTCTCAAGATTCGATAAAAATGGTGTTG
DNA 2: CAACACCATTTTTATCGAATCTTGAGAAGACATCAT
B6: Oligo 3 (AAGATCTT) (dsDNA)
DNA 1: B5 DNA 1 with T19C, C20T, G21T
DNA 2: B5 DNA 2 with C16A, G17A, A18G
B7: Oligo 2 (AGATACGC) (dsDNA)
DNA 1: B5 DNA 1 with T19A, A22C
DNA 2: B5 DNA 2 with T15G, A18T
B8: Oligo 4 (GGATCCGA) (dsDNA)
DNA 1: ATGATGTCTTCTCGGATCCGATAAAAATGGTGTTG
DNA 2: CAACACCATTTTTATCGGATCCGAGAAGACATCAT

Experiments:
LUXMYB R146A = molecular target: T1, LUXMYB R146A (UniProt Q9SNB4 139-200, R146A); assay: EMSA
T1 sequence: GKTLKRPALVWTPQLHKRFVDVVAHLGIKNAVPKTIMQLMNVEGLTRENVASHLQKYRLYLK

LUXFL = molecular target: T2, LUXFL (UniProt Q9SNB4 1-323); assay: EMSA
T2 sequence: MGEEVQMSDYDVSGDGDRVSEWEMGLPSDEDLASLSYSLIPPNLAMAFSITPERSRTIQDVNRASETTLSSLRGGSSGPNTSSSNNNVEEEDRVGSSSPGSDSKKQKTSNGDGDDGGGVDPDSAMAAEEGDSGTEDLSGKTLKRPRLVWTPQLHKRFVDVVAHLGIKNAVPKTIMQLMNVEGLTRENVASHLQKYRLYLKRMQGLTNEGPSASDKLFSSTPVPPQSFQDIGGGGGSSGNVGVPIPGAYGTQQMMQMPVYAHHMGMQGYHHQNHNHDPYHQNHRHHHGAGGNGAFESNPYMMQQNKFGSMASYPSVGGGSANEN

LUXMYB [1] = molecular target: T3, LUXMYB (UniProt Q9SNB4 139-200); assay: EMSA
T3 sequence: T1 sequence with A8R

LUXMYB [2] = molecular target: T3, LUXMYB; assay: crystal structure
LUXMYB [3] = molecular target: T3, LUXMYB; assay: crystal structure; remark: listed apart in the source
[4] = molecular target: T4, EARLY FLOWERING 3, full-length (Arabidopsis, UniProt O82804 1-695); assay: native gel or EMSA
T4 sequence: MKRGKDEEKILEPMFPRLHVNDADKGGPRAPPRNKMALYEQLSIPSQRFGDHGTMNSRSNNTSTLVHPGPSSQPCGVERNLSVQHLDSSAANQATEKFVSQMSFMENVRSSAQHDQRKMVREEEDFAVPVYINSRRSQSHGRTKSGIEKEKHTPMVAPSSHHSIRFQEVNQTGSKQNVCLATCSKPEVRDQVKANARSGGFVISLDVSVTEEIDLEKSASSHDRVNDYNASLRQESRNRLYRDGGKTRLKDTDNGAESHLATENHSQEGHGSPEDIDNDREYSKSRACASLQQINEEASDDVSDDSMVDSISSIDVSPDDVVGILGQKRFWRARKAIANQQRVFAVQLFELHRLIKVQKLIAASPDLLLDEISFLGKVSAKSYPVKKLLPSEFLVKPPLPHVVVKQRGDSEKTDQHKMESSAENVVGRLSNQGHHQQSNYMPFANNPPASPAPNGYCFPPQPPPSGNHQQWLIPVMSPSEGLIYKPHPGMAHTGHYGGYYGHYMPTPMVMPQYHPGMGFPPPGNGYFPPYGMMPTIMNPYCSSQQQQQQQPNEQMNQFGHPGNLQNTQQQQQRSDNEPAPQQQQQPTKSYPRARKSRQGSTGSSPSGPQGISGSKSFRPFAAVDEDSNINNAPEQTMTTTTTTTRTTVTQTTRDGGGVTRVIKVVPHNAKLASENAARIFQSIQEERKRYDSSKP

LUXFL R146A = molecular target: T5, LUXFL R146A (UniProt Q9SNB4 1-323, R146A); assay: EMSA
T5 sequence: T2 sequence with R146A

ELF3 = molecular target: T6, ELF3 (UniProt O82804 1-695); assay: EMSA
T6 sequence: T4 sequence

ELF4 = molecular target: T7, ELF4 (UniProt O04211 1-111); assay: EMSA
T7 sequence: B4 chain

LUXFL;ELF3;ELF4 = molecular target: T8, LUXFL;ELF3;ELF4 (Arabidopsis thaliana?;Arabidopsis …, UniProt Q9SNB4;O82804;O04211 1-323;1-695;1-111, ||); assay: EMSA
T8 sequence 1: T2 sequence
T8 sequence 2: T4 sequence
T8 sequence 3: B4 chain

Row | Binder | Kd (LUXMYB R146A) [nM] | Kd (LUXFL) [nM] | Kd (LUXMYB [1]) [nM] | Kd (LUXFL R146A) [nM] | further results
1 | B1 | 137 ± 13 | 178 ± 3.5 | 43 ± 4.2 | – | –
2 | B2 | – | – | – | – | binding result (LUXMYB [2]): binds
3 | B3 | – | – | – | – | binding result (LUXMYB [3]): binds
4 | B4 | – | – | – | – | binding result [4]: binds
5 | B5 | 50 ± 2.4 | 93 ± 5.8 | 37 ± 2.9 | 105 ± 11.8 | binding result (ELF3): no binding; binding result (ELF4): no binding; binding result (LUXFL;ELF3;ELF4): binds
6 | B6 | 63 ± 3.1 | 93 ± 3.5 | 14 ± 1.8 | 204 ± 6.7 | –
7 | B7 | 50 ± 1.8 | 98 ± 2.9 | 6.5 ± 1.4 | 336 ± 4.8 | –
8 | B8 | 120 ± 1 | 118 ± 10.6 | 17 ± 2.1 | 164 ± 4.2 | –
